Measurements from the nanobody polyreactivity screen of Harvey et al. (2022).

Assay: yeast display, Sf9 membrane polyspecificity reagent, FACS + sequencing; frameworks hold sequencing errors
How it was run: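 Polyreactivity labels are assigned by the sorting gate from which each nanobody was recovered. The gates were low and high (top ~1%), set on anti-HA fluorescence for expression and streptavidin fluorescence for reagent binding. Before sorting, galactose-induced (36–48 hours) yeast display cells were stained for 1 hour at 4 °C with 10% biotinylated, detergent-solubilized Sf9 membrane reagent.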

Sequence	polyreactivity (PSR sort gate)
QVQLVESGGGLVQAGGILRLSCAASGRIFNGYAMGWYRQAPGKERELVAAITSGGRTYADSVKGRFTISRDNAKNTVYLQMYSLKPEDTAVYYCAADAGRILFSGYDYWGQGTQVTVSS	low polyreactivity
QVHLVDSGGGLVQAGGSLRLSCAASGRTFGRNAMGWYRQAPGKERELVAAISLRGGRTYYADSVKGRFTISRDNAKNTVYLQMNSLKPEDTAVYYCAAYGYRDYYFWGQGTQVTVSS	high polyreactivity
QVQLVESGGGLVQAGGSLRLSCAASGSIFLYNAMGWYRQAPGKERELVATITYIGGRTYYADSVKGRFTISRDNAKNTVYLQMNSLKQEDTAVYYCAAEYYVISSPSFYEYDYWGQGTQVTVSS	low polyreactivity
QVQLVESGAGLVQAGGSLRLSCAPSGRTFDYYAMGWYRQAPGKERELVADITKDGGSTYYADSVKGRFTISRDNAKNSVYLQMISLKPEDTAVYYCAADGPPQYYDPIHYDYWGQGTQVTVSS	low polyreactivity
QVQLVESGGGLVQAGGSLRLSCAASGFIFGKNALGWYRQAPGKERELVAVISWRGSSTYYADSVKGRFTISRDNAKNTVYLQMNSLKPEDTAVYYCAARYPARGTLYYWGQGTQVTVSS	low polyreactivity
QVQLVESGGGLVQAGGSLRLSCAASGSTFDTYAMGWYRQAPGKERELVAAISSGGSTNYADSVKGRFTISRDNAKNTVYLQMNSLKPEDTAVYYCADSNKSVFPVYGTLDEYWGQGTQVTVSS	low polyreactivity
QVQLVESGGGLVHAGGSLRLSCAASGRTFYYNAKGWYRQAPGKESELVAAISSGDSTYYADSVKGRFTISRDNAKNTVSLQLNSLKPEDTAVYYCYADTGLGSLDFDKRDYWGQGTQVTVSS	low polyreactivity
QVQLQESGGGLVQAGGSLRLSCAASGSISAVGAMGWYRQAPGKEREFAASVNWGTNTNYADSVKGRFTISRDNAKNTLNLQMNSLKPEDTAVYYCAVQPDWETRHDYWGHGTQVTVSS	low polyreactivity
QVQLVESGGGLVQAGGSLRLSCADSGRTSYYYVMGWYRQAPGKERELVAAIRSRGGSTYYADSVKGRFTISRDNAKNTVYLQMNSLKPEDTAVYYCAARYGFWSYDFGYWGLGTQVTVSS	high polyreactivity
QVQLVESGGGLVQAGGSLRLSCAASGITFIGYAMGWYRQAPGKERELVASITSGANTNYADSVKGRFTISRDNAKNTVYLQMNSLKPEDTAVYYCAAPEHGTYANILGEPLDYWGQGTQVTVSS	low polyreactivity
QVQLVESGGGLVQAGGSLRLSCAASGFIIGSNGMGWYRQAPGKERELVAAISKNGGTTYYADSVKGRVTISRDNANNTVYLLMNSLKPADTAVYYCAAYKAVPNYYYWGQGTQVTVSS	high polyreactivity
QVQLVESGGGLVQAGGSLRLSCAASGRTFYGYAMGWYRQAPGKERELVAVITSGVRTNYADSVKGRFTISRDNAKNTVYLQMNSLKPEDTAVYYCAARGTLALRDHYGYWGQGTQVNVSS	high polyreactivity
QVQLVESGGGLVQAGGSLRLSCAASGFTLYSYAMGWYRQAPGKETELVAAITRSGGITYYADSVKGRFTISRDNAKNTVYLQMNSLKPEDTAVYYCAALYLATGVDKAFDSWGQGTQVTVSS	high polyreactivity
QVQLVESGGCLVQAGGSLRLSCAASGRTFYTNGMGWYRQAPGKEREFVAGITYRGGGTYYADSVKGRFTISRDNAQNTVYLQMNSLKPEDTAVYYCAARYYRDYRWYTYAYDYWGQGTQVTVSS	high polyreactivity
QVQLVESGGGLVQAGGSLRLSCAASGFIFKWNAMGWYRPAPGKERELVAAISWHGGSTNYADSVKGRFTISRDNAKNTVYLQMNSLKQEDTAVYYCAKQQSPYYPSTLDYWGQGTQVTVSS	high polyreactivity
QVQLVESGGGLVQSGGSLRLSCAASGRIFGKYAMGWYRQAPGKERELVARISFSGGTTYYADSVKGRFTISRDNAKNTVYLQMYSLKPEDTAVYYCSARSVWSQRWAYDSWGQGTQVTVSS	high polyreactivity
QVQLVESGGGLVQAGGSLRLSCAASGRTFDVYAMGWYRQPPGKESELVATISYRSARTYSADSVKGRFTISRDNAKNTVYLQMNSLKPEDTAVYYCAARVGARVSQPRRHGRFNYWGQGTQVTVSS	high polyreactivity
QVQLVESGGGLVQAGGSLRLSCAASGFTCVPYAMGWYSQAPGKARELVAAITGGGSTYYADSVKGRFTISRDNAKNTVYFQMHSLKPEDTAVYYCAAREARSHRYSNRVYYWGQGTQVTVSS	high polyreactivity
QVQLVESGGGLVQAGVSLRLSCAASGSTFSNYAMGWYRQAPGKERELVAGIDWSGGSTYYADSVKGRFTISRDNEKITVYLQMNSLKPEDTAVYYCAKRVWYHGRKLRGYYWGQGTQVTVSS	low polyreactivity
QVQLVESGAGLVQAGGSLRLSCAASGFIFWRNTMGWYRQAPGKERELVAVITRGGSTYYADSVKGRFTISRDNAKNTVYLQMNSLKPVDTAVYYCNADNVVEGYDRRSARASYRYYYWGQGTQVTVSS	low polyreactivity
QVQLVESGGGLVQAGGSLRLSCAATGFIVAWYAMGWYRQAPGKERELVAAISSSVGSTYYADSVKGRFTISRDIAKNTVYLQMNSLKPEDTAVYYCNADEYWASGYDPYDYWGQGTQVTVSS	low polyreactivity
QVQLVESGGGLVQAGGSLRLSCAASGITFYVYAMGWYRQAPGKERELVAAISSGSSTYYADSVKGRFTISRDNAKNTVYLQMNSLKPEDTAVYYCAARYRKYLSEYWGQGTQVTVSS	high polyreactivity

Sequence	polyreactivity (PSR sort gate)
QVQLVESGGGLVQAGGSLRLSCAASGRIFPYYAMGWYIQAPGKERELVAAIDGIGDTTYYADSVKGRFTISRDNAKNTVYLQMNSLKPEDTAVYYCNADGDAYYWGSYDEEDYWGQGTQVTVSS	low polyreactivity
QVQLVESGGGLVQAGGSLRLSCAASGSIFVGYAMGWYRQAPGKERELVASITTRGGSTHYADSVKGRFTISRDNAKNTVYLQMNSLKPEDTAVYYCAADSLSNGVLQYLPGYDYWGQGTQVTVSS	low polyreactivity
QVQLVESGGGLVQAGGSLRLSCAASGSTFFGYAMGWYRQAPGKERELVATISSGDSTNYADSVKGRFTISRDNAKNTVYLQMNSLKPEDTAVYYCAAQGGDGVLALYYYWGQGTQVTVSS	low polyreactivity
QVQLVESGGGLVQAGGSLRISCGASGSTFAQNVMGWDRQAPGKERELVAAITSSGSTNYADSVKGRFTISRDNAKNTVYLQMNSLKPEDSAVYYCAKDVLAPYSRHDYWGQGTQVTVSS	low polyreactivity
QVQLVESGGGLVQAGGSLRLSCAASGRIFPKYAMGWYRQAPGKERELVAAITGIGTSTYYADSVKGRFTISRDNAKNTVYLQMNSLKPEDTAVYYCAADTWTIVDYGYWGQGTQVTVSS	low polyreactivity
QVQLVESGGGLVQAGGSLRLSCAASGGTFATYAMGWYRQAPGKEKELVAAISWSGGSTYYADSVKGRFTISRDNAKNTVYLQMNSLKPEDTAVYYCNALPRLGGGAEKLDYWGQGTQVTVSS	high polyreactivity
QVQLVESGGGLVQAGCSLRLSCAASGRIFYYYAMGWYRQAPGKERELVADITWSGGSTYYADSVKGRFTISRDNAKNTVYLQMNSLKPEDTAVYYCNAVYFNYLLEYDYWGQGTQVTVSS	high polyreactivity
QVQLVESGGGLVQAGGSHRLSCAASGSTLSVNAMGWYRQAPGKERELGAAIDFDGGDTYYADSVKGRFTLSRDNAKNTVYLQMNSLKPEDTAVYSCNAALRWKYDWVQGTQVTVSS	low polyreactivity
QVQLVESGGGLDQAGGSLRLSWAASGGIFIYNAMGWYRQPPGKEREVVAAINISGGNTYYADSVKGRFTISRDNAKNTVYLQMNSLKPEDTAVYYCAARYASSWWIRYYFWGQGTQVTVSS	high polyreactivity
QVQLVESGGGLVQAGGSLRLSCAASGSIFASNTMGWYRQAPGKERELVAGITKIGSSTYYADSVKGRFTISRDNAKNTVYLQMNSLKPEDTAVYYGNADYYFSWGSIEDYWGQGTQVSVSS	low polyreactivity
QVQLVESGGGLVQAGGRLRLSCAASGRTLVSNAMGWYRQAPGKERELVAAITYSGGSTYYADSVKGRFTISRDNAKNTVYLQMNSLKPEDTAVYYCAKVGRLYRVGGYDYWGQGTQVTVSS	low polyreactivity
QVQLVESGGGLVQAGGSLRLSCAASGFIFNGNVMGWYRQAPGKERELVAAITVSGGSTRYADSVKGRFTISRDNAKNTVYLQMNSLKPEDTAVYYCAARTRYLSYGWIHEYYYWGQGTQVTVSS	high polyreactivity
QVQLVESGGGLFQAGGSLRLSCAASGSIFWSYAMGWYRQAPGKERELVAAISSGGSTNYADSVKGRFTISRDNAKNTVYLQMNSLKPEDTAVYYCNAVGAKGYVKGFDYWGQGTQVTVSS	low polyreactivity
QVQLVESGGGLVQAGGSLRVTCAASGNIFGYYAMGWYRQAPGKERELDAAISSGGTTSYADSVKGRFTISRDNAKNTVYLQLNSLKPEDTAVYYCAARDWYDGFYYWGQGTQVTVSS	low polyreactivity
QVQLVESGGGLVQAGGSLRLSCASSGSILYVYAMGWYRQAPGKERELVAAISTSGVSTYYADSVKGRFTISRDNAKNTVYLQMNSLKPEDTAVYYCAATVSRGFYSWWYDYWGQGTQVTVSS	low polyreactivity
QVQLVESGGGLVQAGGSLRLSCADSGSTFGYYAMGWYRQAPGKERELVAGISSGGTTKYADSVKGRFTISRDNAKNTVYLQMNSLKPVDTAVYYCAARFRRTRVTYYYWGQGTQVTVSS	high polyreactivity
QVQLVESGGGLVQAGGSLRLSCAASGSTFYSYAMGWYRQAPGKEREFVAAIRYSGGRTYADSVKGRFSISRDNAKNTVYLQMNSLKPEDTAVYYCAAVYYSYRWPYDYWGQGTQVTVSS	high polyreactivity
QVQLVESGGGLVQAGGSLRLSCAASGSTFKGYTMGWYRQAPGKEREFVATITFSDGSTYYADCVKGRFTISRDNAKNTVYLQMNSLKPAVTAVYYCNVDSPIGYDYWGQGTQVTVSS	low polyreactivity
QVQLVESGGGLVQAGGSLRLSCAASGRIFDCYAMGWYSQAPGKERELVAAITSRGGSTYYADSVKGRFTISRDNAKNTVYLQMNSLKPEDTAVYYCAKRSTSRGYDYWGQGTQVTVSS	high polyreactivity
QVKLVESGGGLVQAGGSLRLICAASGFTFRYYTMGWYRQAPGKARELVAAISRSSGSRTYYADSVKGRFTISRDNAKNTVYLQMNSLKPEDTAVYYCNADPAYQFDYWGQGTQVTVSS	high polyreactivity
QVQLVESGGGLDQAGGSLRLSCAASGRIFDSNAMGWYRQAPGKERELVAAISYDGGSTYYADSVKGRFTISRDNAKNTVYLQMNSLKPEDTAVYYCAGDDGWYYYYGYDYWGQGTQVTVSS	low polyreactivity
